Measured values as given in patent publication US20240368668A1, “SUBSTRATES AND BIOMARKERS OF ADAMTS7” (The Broad Institute, Inc., priority 2021, published 2024).

Target: T1, mouse ADAMTS7 (Mus musculus, UniProt Q68SA9, E373Q)
T1 construct: Full-length mouse Adamts7 1-1857 (Uniprot Q68SA9, WT or E373Q catalytic mutant); expressed in transfected cells; host or cells: Human Coronary Artery Smooth Muscle Cells (HCA-SMC, Lonza), adenovirus 50 MOI
T1 sequence (Q68SA9 221-1657 E373Q): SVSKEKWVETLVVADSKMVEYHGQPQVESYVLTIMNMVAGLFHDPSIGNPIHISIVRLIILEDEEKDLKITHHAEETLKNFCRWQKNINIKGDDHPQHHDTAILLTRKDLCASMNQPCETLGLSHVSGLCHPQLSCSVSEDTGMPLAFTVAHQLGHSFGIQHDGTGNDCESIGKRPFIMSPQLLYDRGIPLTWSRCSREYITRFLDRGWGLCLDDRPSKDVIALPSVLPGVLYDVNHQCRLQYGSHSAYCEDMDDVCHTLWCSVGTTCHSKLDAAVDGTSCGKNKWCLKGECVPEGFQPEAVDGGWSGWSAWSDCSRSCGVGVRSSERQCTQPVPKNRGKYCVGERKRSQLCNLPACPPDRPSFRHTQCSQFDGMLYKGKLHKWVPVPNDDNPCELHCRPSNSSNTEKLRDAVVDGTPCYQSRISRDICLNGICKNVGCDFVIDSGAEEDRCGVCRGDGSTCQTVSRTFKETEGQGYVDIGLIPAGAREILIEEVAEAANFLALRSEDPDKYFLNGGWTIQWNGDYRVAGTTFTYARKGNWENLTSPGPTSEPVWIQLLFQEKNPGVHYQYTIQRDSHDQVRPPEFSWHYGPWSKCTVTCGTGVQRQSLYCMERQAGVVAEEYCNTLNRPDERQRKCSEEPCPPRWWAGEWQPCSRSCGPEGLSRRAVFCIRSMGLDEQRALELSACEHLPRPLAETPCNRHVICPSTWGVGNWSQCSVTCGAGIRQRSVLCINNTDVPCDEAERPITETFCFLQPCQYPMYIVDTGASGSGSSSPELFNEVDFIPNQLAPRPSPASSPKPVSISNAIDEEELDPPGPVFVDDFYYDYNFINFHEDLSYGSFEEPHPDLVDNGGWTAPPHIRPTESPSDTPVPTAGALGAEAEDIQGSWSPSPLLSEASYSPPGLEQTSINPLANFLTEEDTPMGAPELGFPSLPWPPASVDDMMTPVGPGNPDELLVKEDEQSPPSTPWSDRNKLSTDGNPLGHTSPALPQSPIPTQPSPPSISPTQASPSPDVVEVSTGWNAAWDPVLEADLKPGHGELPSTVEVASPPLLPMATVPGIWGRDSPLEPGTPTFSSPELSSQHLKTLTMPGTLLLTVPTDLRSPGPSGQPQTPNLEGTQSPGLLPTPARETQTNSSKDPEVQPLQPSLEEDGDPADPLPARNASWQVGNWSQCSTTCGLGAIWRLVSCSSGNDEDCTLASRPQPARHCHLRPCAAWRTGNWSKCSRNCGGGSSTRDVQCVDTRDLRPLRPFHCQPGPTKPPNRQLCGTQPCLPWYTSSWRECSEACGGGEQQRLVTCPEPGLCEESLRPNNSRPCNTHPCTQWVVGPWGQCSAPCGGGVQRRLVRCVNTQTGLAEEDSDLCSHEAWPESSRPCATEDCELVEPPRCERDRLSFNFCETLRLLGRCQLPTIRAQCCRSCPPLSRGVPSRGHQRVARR
Assay: TMT10 TAILS N-terminomics, SMC2 experiment (process replicates, trypsin/AspN digest)
Assay type: cell-based
Conditions: log fold change
How it was run: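 Full-length mouse ADAMTS7 (WT or E373Q mutant, C-terminal 3xFLAG) or luciferase was transduced via adenovirus, 50 MOI, into HCA-SMC (SMC1, SMC2) or HUVEC. SMC1: pooled media, technical triplicates 400 ug; SMC2: process triplicates 300 ug; HUVEC: process triplicates 200 ug, bFGF2 10 ng/ml.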

Row | Substance | logFC.mEQ.over.Luc (SMC2_TAILS HC, mEQ over Luc) | logFC.mEQ.over.Luc (ADAMTS7 EQ over luciferase)
1 | ADAM9_74 (GKEHIIHLER; listed as Homo sapiens) | −0.18 | 
2 | VASN_138 (HIQPGAFDTLDR; listed as Homo sapiens) |  | 0.19
3 | HEG1_51 (GLELQLER; listed as Homo sapiens) | 0.25 | 
4 | FN1_2113 (FVTHPGY; listed as Homo sapiens) | −0.19 | 
5 | SERPINH1_27 (AAAPGTAEKLSPKAATLAER; listed as Homo sapiens) |  | −0.69
